Source: US20230227838A1, “ENHANCED CELL SURVIVAL AGAINST BIOTIC AND ABIOTIC STRESSES THROUGH SALICYLICK ACID-INDUCED NPR1 CONDENSATES” (priority 2020, published 2023)

molecular target: sim3-GFP (Arabidopsis thaliana) (UniProt P93002); test: sim3-GFP IP, LC-MS/MS
Sequence (P93002 other isoform, or with tags, fused parts or gaps): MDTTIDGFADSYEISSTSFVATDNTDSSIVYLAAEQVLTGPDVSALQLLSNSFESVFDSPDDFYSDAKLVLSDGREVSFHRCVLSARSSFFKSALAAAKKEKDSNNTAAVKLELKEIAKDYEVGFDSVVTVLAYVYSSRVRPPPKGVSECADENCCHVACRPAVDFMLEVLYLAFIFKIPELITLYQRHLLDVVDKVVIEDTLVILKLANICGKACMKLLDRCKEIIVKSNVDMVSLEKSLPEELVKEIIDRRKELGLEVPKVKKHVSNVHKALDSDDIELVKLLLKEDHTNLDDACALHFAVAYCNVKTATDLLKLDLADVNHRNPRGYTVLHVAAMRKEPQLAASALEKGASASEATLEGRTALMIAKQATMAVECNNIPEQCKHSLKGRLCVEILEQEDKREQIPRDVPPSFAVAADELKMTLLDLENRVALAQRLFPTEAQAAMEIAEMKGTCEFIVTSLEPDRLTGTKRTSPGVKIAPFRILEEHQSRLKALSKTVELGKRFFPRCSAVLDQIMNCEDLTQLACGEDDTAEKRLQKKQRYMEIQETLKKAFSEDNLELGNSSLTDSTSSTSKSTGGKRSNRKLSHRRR

Normalized Fold Change: SA vs Mock | Binder
2.99 fold | SINAT2, seven in absentia of Arabidopsis 2 (protein, UniProt Q9M2P4 1-308, looked up) E3 ubiquitin-protein ligase SINAT2: MAPGGSALKEVMESNSTGMDYEVKTAKVEVNNNKPTKPGSAGIGKYGIHSNNGVYELLECPVCTNLMYPPIHQCPNGHTLCSNCKLRVQNTCPTCRYELGNIRCLALEKVAESLEVPCRYQNLGCHDIFPYYSKLKHEQHCRFRPYTCPYAGSECSVTGDIPTLVVHLKDDHKVDMHDGCTFNHRYVKSNPHEVENATWMLTVFNCFGRQFCLHFEAFQLGMAPVYMAFLRFMGDENEAKKFSYSLEVGAHGRKLTWQGIPRSIRDSHRKVRDSQDGLIIPRNLALYFSGGDRQELKLRVTGRIWKEE
2580 fold | UBP24, ubiquitin-specific protease 24 (protein, UniProt Q9FPS3 1-551, looked up) Ubiquitin carboxyl-terminal hydrolase 24: MSEKKVFVFGSFTEHETRSFFEQKPTKDPQNSKDKCVGSIQFGSLNLAAENSSVNTNGELKKGEADGTVKSAGSQERLDASRPASSDKNNDSDAKLPRKNSLRVPEHVVQNGIIKEISESNKSLNNGVAVKTDPIGLDNLSMSDGESDPVYKASSSKFQALDNEDFSSDSSSGSIQRKKNLKVPTESVPPVKDFTPRGLINAGNLCFLNATLQALLSCSPFVQLLQKIQLQDIPKADSPTLAAFSEFISELDVPSSSSIRNNVTVVEAGRPFRPAMFEGVLRNFTPDVLNNMSGRPRQEDAQEFLSFIMDQMHDELLKLKEQSPKVTASKSSVISSANDDGDEWETVGPKNKSAVTRTQSFVPSELSEIFGGQLKSVVKAKGTKASATVQPYLLLHLDIHPDGVQGIEDALHLFSAQEDLEGYRASVTGKTGVVSASKSIKIQKLSKIMILHLMRFSYGSQGSTKLRKGVKFPLELNLNRSHLVSLSNESLRYELVATITHHGWDPSKGHYTTDARRKNGQWLRFDDASVTPIGTKLVLHDQAYVLFYKQV
5.02 fold | UBP14, ubiquitin-specific protease 14 (protein, UniProt Q8L6Y1 1-797, looked up) Ubiquitin carboxyl-terminal hydrolase 14: MELLRSNLSRVQIPEPTHRIYKHECCISFDTPRSEGGLFVDMNSFLAFGKDYVSWNYEKTGNPVYLHIKQTRKSIPEDRPLKKPTLLAIGVDGGFDNNEPEYEESYSIVILPDFVSLPFPSVELPEKVRIAVDTVVNAVGAERKEQVAAWTAEKKLISEHALTLQQIKSGIVIPPSGWKCSKCDKTENLWLNLTDGMILCGRKNWDGTGGNNHAVEHYKETAYPLAVKLGTITADLEAADVYSYPEDDSVLDPLLAEHLAHFGIDFSSMQKTEMTTAERELDQNTNFDWNRIQESGKELVPVFGPGYTGLVNLGNSCYLAATMQIVFSTHSFISRYFSHQSLKMAFEMAPADPTLDLNMQLTKLGHGLLSGKYSMPATQKDATTGDPRQEGIPPRMFKNVIAASHAEFSSMRQQDALDFFLHLVGKVERASNTTPDLDPSRSFKFGIEEKILCPSGKVGYNKREDCILSLNIPLHEATNKDELEAFHKQKAGKGLEENDMRSSDEIVRPRVPLEACLANFASSEPIEDYYSSALKGMTTAIKTTGLTSFPDYLVLHMRKFVMEEGWVPKKLDVYIDVPDVIDISHMRSKGLQPGEELLPDGVPEEVMESAQPVANEEIVAQLVSMGFSQLHCQKAAINTSNAGVEEAMNWLLSHMDDPDIDAPISHQTSDIDQSSVDTLLSFGFAEDVARKALKASGGDIEKATDWVFNNPNASVSDMDVSSSNSAQTPAQSGLPDGGGKYKLFGIVSHMGTSVHCGHYVAHILKEGRWVIFNDDKVGISTDPPKDMGYVYFFQRLD
5.82 fold | SAE2, SUMO-activating enzyme 2 (protein, UniProt Q9SJT1 2-700, looked up) SUMO-activating enzyme subunit 2: ATQQQQSAIKGAKVLMVGAGGIGCELLKTLALSGFEDIHIIDMDTIEVSNLNRQFLFRRSHVGQSKAKVARDAVLRFRPNINIRSYHANVKNPEFDVDFFKQFDVVLNGLDNLDARRHVNRLCLAADVPLVESGTTGFLGQVTVHIKGKTECYECQTKPAPKTYPVCTITSTPTKFVHCIVWAKDLLFAKLFGDKNQDNDLNVRSNNSASSSKETEDVFERSEDEDIEQYGRKIYDHVFGSNIEAALSNEETWKNRRRPRPIYSKDVLPESLTQQNGSTQNCSVTDGDLMVSAMPSLGLKNPQELWGLTQNSLVFIEALKLFFAKRKKEIGHLTFDKDDQLAVEFVTAAANIRAESFGIPLHSLFEAKGIAGNIVHAVATTNAIIAGLIVIEAIKVLKKDVDKFRMTYCLEHPSKKLLLMPIEPYEPNPACYVCSETPLVLEINTRKSKLRDLVDKIVKTKLGMNLPLIMHGNSLLYEVGDDLDDIMVANYNANLEKYLSELPSPILNGSILTVEDLQQELSCKINVKHRFFSEILNPVLNSVWFLIILPSTFPKLFHFTESRNQDGLSLDIILGFSNVTIRRVLTMFETGRRLTHPLLILFCHREEFDEEKEPEGMVLSGWTPSPATNGESASTSNNENPVDVTESSSGSEPASKKRRLSETEASNHKKETENVESEDDDIMEVENPMMVSKKKIRVE
44.1 fold | atnudt5, NUDT5, nudix hydrolase homolog 5 (protein, UniProt Q9SJC6 1-302, looked up) Nudix hydrolase 5: MGLTKNFAFLVFCCQRYCSMDGEAFEISLLDGEEDRFGGTVVNLMEVESMTIGDFDSKLDVSLKAWKDQGKKGIWIKLPSELSSLVDTAIKKGFTYHHAENEYVMLTFWLPEPPSTLPCNASHRIGIGAFVLNKNGEMLVVQENSGYFKDKNVWKVPTGTIKEGESIWAGAVREVKEETDIDAEFVEVLSFMESHQAVWQRKTDIFFVCELEARTFEIQKQDSEIHAAKWMPVEEYVNQPYHNKEGNEMFKLIANICLKRSREKYTGFVLTTNSAKKSLYCSVDHANLLKETADQASTSLSD
2.31 fold | UBP2, ubiquitin-specific protease 2 (protein, UniProt Q8W4N3 1-961, looked up) Ubiquitin carboxyl-terminal hydrolase 2: MGKKAKKKARAPTKEIQTMEISKKVSEEPPSQAGEIAEGDVKAVKETQACVHFDKALNLEKVLDKIKSSRQIKCAECNEGVYGKRGTKAKGSKGKKDFSSSDPKSNNKAIWLCLECGCYVCGGVGLPNGPQSHVLRHSRVTRHRLVIQWENPQLRWCFPCQLLLPVEKEDNGEKKDVLSEVVKLIKGRSLNNLASSDIEDQCSGSGSITSDIKLEGAVTSDIEARDGYVVRGLVNLGNTCFFNSIMQNLLSLDRLRDHFLKENGSGVGGPLASSLRKLFTETKPEAGLKSVINPRAFFGSFCSKAPQFRGYDQHDSHELLRCLLDSLSTEESALRKKRGVSDNDEKSTTLIESVFGGETSSIVSCMECGHSSKVYEPFLDLSLPVPFKKSPPKKPQPVSRAKKAKLPPKRVPKNVSKVSKVSKVLPGMVLSELNSSGKSMAVTADSDTSCSSLAPLDNGPVLETPSVLTLDNNQASESASQSDTGFDGSWLDFIGPETSGDETNLDMQEDGIDNVITAEVNQIVPSPNIVANSSVSSGDQTLEGNTERLMQDYEEIAKAEANLDEKDVQAMQSDECPATSGISAEFSQASCIGCDPGIGESSSSVNPWDEEELPLVVADSQILYMPYKEISCNDKSVEGECEASSSFVTGDHEPQNSDFVDFGGLFDEPETTEGPVFGPPSKAEASGVGFMAFSSESDPEEIDDSDLPVSVERCLGHFTKHEILSDDNAWNCENCSKNLKLQRLREKRKSNEDESRSSNTSNGWVKENEDEGFGETEILAVKQDPNDTSCVKDHSSDGRKAARIHSADESESKGTQDEDEDSEKVITVKRDATKKVLINKAPPVLTIHLKRFSQDLRGRLSKLNGHVAFKEVIDLRQYMDSRCSGEDPPVYRLAGLVEHSGTMRGGHYVAYVRGGQRVKETDSSSTAWYNVSDAYVRQVSLEKVLHSEAYILFYERIFSQE
2550 fold | CLIP-associated protein (protein, UniProt Q8RWY6 1-1439, looked up) CLIP-associated protein: MEEALEMARAKDTKERMAAVERLHQLLEASRKSLSPAEVTSLVDSCLDLLKDSNFRVSQGALQALASAAVLAGEHLKLHLNALVPAVVERLGDSKQPVRDAARRLLTTLMEVSSPTIIVERAGSYAWMHKSWRVREEFARTVTSAIGLFASTELPLQRVILAPILQMLNDPNQAVREAAILCIEEMYMQGGSQFREELQRHHLPSYMVKDINARLERIEPQLRSTDGRSAHHVVNEVKASSVNPKKSSPRAKAPTRENSLFGGDADITEKPIEPIKVYSEKELIREFEKIAATLVPEKDWSMRISAMRRVEGLVAGGATDYSCFRGLLKQLVGPLSTQLADRRSTIVKQACHLLCLLSKELLGDFEACAETFIPVLFKLVVITVLVIAESADNCIKTMLRNCKAARVLPRIAESAKHDRNAILRARCCEYALLTLEHWPDAPEIQRSVDLYEDLIRCCVADAMSEVRATARMCYRMFAKTWPDRSRRLFSSFDPVIQRLINEEDGGIHRRHASPSVRERHSQPSFSQTSAPSNLPGYGTSAIVAMDRSSNLSSGGSLSSGLLLSQSKDVNKGSERSLESVLQSSKQKVSAIESMLRGLHISDRQNPAALRSSSLDLGVDPPSSRDPPFHAVAPASNSHTSSAAAESTHSINKGSNRNGGLGLSDIITQIQASKDSGRSSYRGNLLSESHPTFSSLTAKRGSERNERSSLEESNDAREVRRFMAGHFDRQQMDTAYRDLTFRESNASHVPNFQRPLLRKNVGGRMSAGRRRSFDDSQLQIGDISNFVDGPASLNEALNDGLNSSSDWCARVAAFNFLQTLLQQGPKGAQEVIQSFEKVMKLFLRHLDDPHHKVAQAALSTLADLIPSCRKPFESYMERVLPHVFSRLIDPKEVVRQPCSSTLEIVSKTYSVDSLLPALLRSLDEQRSPKAKLAVIEFAINSFNRYAGNPEISGNSGILKLWLAKLTPLTRDKNTKLKEASITCIISVYNHYDSAGLLNYILSLSVEEQNSLRRALKQYTPRIEVDLLNYMQSKKEKQRIKSYDPSDAIGTSSEEGYAGASKKNIFLGRYSGGSIDSDSGRKWSSSQEPTMITGGVGQNVSSGTQEKLYQNVRTGISSASDLLNPKDSDYTFASAGQNSISRTSPNGSSENIEILDDLSPPHLEKNGLNLTSVDSLEGRHENEVSRELDLGHYMLTSIKVNTTPESGPSIPQILHMINGSDGSPSSSKKSGLQQLIEASVANEESVWTKYFNQILTVVLEVLDDEDFSIKELALSLISEMLKSQKDAMEDSVEIVIEKLLHVSKDTVPKVSTEAEQCLTTVLSQYDPFRCLSVIVPLLVTEDEKTLVACINCLTKLVGRLSQEELMDQLSSFLPAVFEAFGSQSADVRKTVVFCLVDIYIMLGKAFLPYLEGLNSTQVRLVTIYANRISQARNGAPIDADT
2.26 fold | ADF6 (protein, UniProt Q9ZSK2 1-146, looked up) Actin-depolymerizing factor 6: MSFRGLSRPNAISGMGVADESKTTFLELQRKKTHRYVVFKIDESKKEVVVEKTGNPTESYDDFLASLPDNDCRYAVYDFDFVTSENCQKSKIFFFAWSPSTSGIRAKVLYSTSKDQLSRELQGIHYEIQATDPTEVDLEVLRERAN
